Source: patent US10676765B2, “Methods for producing 3-hydroxy-3-methylbutyric acid” (Global Bioenergies, priority 2015, dated 2020)

Experiments:
Assay type in all cases: biochemical
[1] = Enzyme-catalyzed hydrolysis of 3-hydroxyisovaleryl-CoA into 3-hydroxyisovaleric acid; settings: 10 mM 3-hydroxyisovaleryl-CoA, 1 mg/ml thioesterase, 30 min, 30° C.
Method: The gene coding for acyl-CoA thioesterase II from Pseudomonas putida was synthesized and the corresponding enzymes were further produced according to the procedure described in Example 1.
Provided vectors contained a stretch of 6 histidine codons after the methionine initiation codon. The corresponding enzymes were further produced according to the procedure described in Example 1.
(§1) The enzymatic assays were conducted in total reaction volume of 0.2 ml
(§2) The standard reaction mixture contained:
10 mM 3-hydroxyisovaleryl-CoA
1 mg/ml of purified thioesterase
The assays were incubated for 30 min with shaking at 30° C. and the reactions were stopped by the addition of 0.1 ml of acetonitrile. The amount of 3-hydroxyisovaleryl-CoA was quantified according to HPLC-based procedure described in Example 3.
In these conditions, the 3-hydroxyisovaleryl-CoA retention time was 4.40 min and coenzyme A (CoA) retention time was 3.96 min.
Additionally, 3-hydroxyisovaleric acid production was analyzed according to the procedure described en Example 6.

[2] = Enzyme-catalyzed hydrolysis of 3-methylcrotonyl-CoA into 3-methylcrotonic acid and free coenzyme A; settings: 10 mM 3-methylcrotonyl-CoA, 1 mg/ml thioesterase, 30 min, 30° C.
Text: The gene coding for acyl-CoA thioesterase II from Pseudomonas putida was synthesized according to the procedure as described in Example 1.
The vector pCA24N which contained the gene encoding acyl-CoA thioesterase 2 (TesB) from Escherichia coli was purchased from NAIST (Nara Institute of Science and Technology, Japan, ASKA collection). This vector provided contained a stretch of 6 histidine codons after the methionine initiation codon.
The corresponding enzymes were produced according to the procedure described in Example 1.
The enzymatic assays were conducted in a total reaction volume of 0.2 ml.
as §2
10 mM 3-methylcrotonyl-CoA (Sigma-Aldrich)
1 mg/ml of purified recombinant thioesterase.
Control assays were performed in which either no enzyme was added or no substrate was added.
The assays were incubated for 30 min with shaking at 30° C., the reactions were stopped by the addition of 0.1 ml of acetonitrile and the samples were then analyzed by HPLC-based procedure.
HPLC analysis was performed using an 1260 Infinity LC System (Agilent), equipped with a column heating module and a UV detector (210 nm). […] The separation was performed using mixed A (H2O containing 8.4 mM sulfuric acid) and B (acetonitrile) solutions in a linear gradient (0% B at initial time 0 min→70% B at 8 min). […]

[3] = Kinetic studies of the hydration reaction of 3-methylcrotonyl-CoA; settings: 0-4 mM 3-methylcrotonyl-CoA, 0.01 mg/ml enzyme, 30° C., pH 7.0
Method: as §1, §2
0-4 mM 3-methylcrotonyl-CoA
0.01 mg/ml 3-hydroxypropionyl-CoA dehydratase from Metallosphaera sedula.
Assays were incubated for 0, 2, 4, 8, 16 min with shaking at 30° C. and the reactions were stopped by the addition of 100 μl of acetonitrile. The amount of 3-hydroxyisovaleryl-CoA was quantified according to HPLC-based procedure described in Example 3.
The graph depicting 3-hydroxyisovaleryl-CoA formation as a function of time at different substrate concentrations is shown in the FIG. 15.

Row | Molecule | Conversion, % [1] [%] | 3-methylcrotonic acid produced [2] [mM] | Km [3] [µM] | kcat for 3-methylcrotonyl-CoA [3] [s⁻¹]
1 | tesB Pseudomonas putida: acyl-CoA thioesterase II from Pseudomonas putida, Uniprot Q88DR1 (protein, listed as Pseudomonas putida) MSHVLDDLVDLLSLESIEENLFRGRSQDLGFRQLYGGQVLGQSLSAASQTVEDARHVHSLHGYFLRPGDASLPVVYSVDRVRDGGSFSTRRVTAIQKGQTIFTCSASFQYDEEGFEHQAQMPDVVGPENLPTEVELAHAMADQLPERIRDKVLCAKPIEIRPVTERDPFNPKPGDPVKYAWFRADGNLPDVPALHKYMLAYASDFGLLTTALLPHGKSVWQRDMQIASLDHSLWFHGNLRADQWLLYATDSPWAGNSRGFCRGSIFNQAGQLVASSSQEGLIRHRKDWA | 58 | 3.1 |  | 
2 | 3-Hydroxypropionyl-CoA dehydratase from Metallosphaera sedula: recombinant His-tagged 3-hydroxypropionyl-CoA dehydratase (EC 4.2.1.116) from Metallosphaera sedula, Uniprot A4YI89 (protein, listed as Metallosphaera sedula, His tag; strain ATCC 51363 /DSM 5348, recombinant His-tagged 3-hydroxypropionyl-CoA dehydratase (EC 4.2.1.116) from Metallosphaera sedula, Uniprot A4YI89) MEFETIETKKEGNLFWITLNRPDKLNALNAKLLEELDRAVSQAESDPEIRVIIITGKGKAFCAGADITQFNQLTPAEAWKFSKKGREIMDKIEALSKPTIAMINGYALGGGLELALACDIRIAAEEAQLGLPEINLGIYPGYGGTQRLTRVIGKGRALEMMMTGDRIPGKDAEKYGLVNRVVPLANLEQETRKLAEKIAKKSPISLALIKEVVNRGLDSPLLSGLALESVGWGVVFSTEDKKEGVSAFLEKREPTFKGK |  |  | 300 | 10
3 | tesB Escherichia coli: acyl-CoA thioesterase 2 from E. coli, Uniprot P0AGG2 (protein, listed as Escherichia coli, strain K12, acyl-CoA thioesterase 2 from E. coli, Uniprot P0AGG2) MSQALKNLLTLLNLEKIEEGLFRGQSEDLGLRQVFGGQVVGQALYAAKETVPEERLVHSFHSYFLRPGDSKKPIIYDVETLRDGNSFSARRVAAIQNGKPIFYMTASFQAPEAGFEHQKTMPSAPAPDGLPSETQIAQSLAHLLPPVLKDKFICDRPLEVRPVEFHNPLKGHVAEPHRQVWIRANGSVPDDLRVHQYLLGYASDLNFLPVALQPHGIGFLEPGIQIATIDHSMWFHRPFNLNEWLLYSVESTSASSARGFVRGEFYTQDGVLVASTVQEGVMRNHN | 52 | 0.6 |  | 
